One molecule from patent US20160137713A1 (HANALL BIOPHARMA, published 2016) can be followed below.

The target of experiment [1] is T1, mouse FcRn on 3T3-L1 cells (mouse, UniProt Q61559 22-365; P01887 21-119).
T1 construct: whole, on cells; also called NIH3T3L1
T1 sequence (looked up): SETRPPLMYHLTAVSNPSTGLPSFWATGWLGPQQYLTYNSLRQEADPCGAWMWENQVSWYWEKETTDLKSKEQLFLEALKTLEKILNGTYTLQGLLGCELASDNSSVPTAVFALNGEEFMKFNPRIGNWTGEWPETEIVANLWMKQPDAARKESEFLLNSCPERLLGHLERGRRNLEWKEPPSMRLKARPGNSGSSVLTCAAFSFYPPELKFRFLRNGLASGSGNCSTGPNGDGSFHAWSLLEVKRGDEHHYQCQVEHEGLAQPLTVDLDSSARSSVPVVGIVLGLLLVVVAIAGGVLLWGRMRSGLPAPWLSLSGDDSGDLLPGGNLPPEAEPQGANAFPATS
T1 sequence (b2m, looked up): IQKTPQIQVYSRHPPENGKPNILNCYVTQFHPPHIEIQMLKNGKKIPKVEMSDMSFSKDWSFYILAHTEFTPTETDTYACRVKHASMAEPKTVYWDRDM
Briefly: FACS on mouse FcRn-expressing 3T3-L1 cells at pH 6.0 and pH 7.4, FITC anti-human IgG goat antibody; MFI relative to hIgG. How it is done: 3T3-L1 cells stably expressing mouse FcRn were cultured in 10% FCS DMEM medium, and then detached from the culture plate by trypsin treatment. The cells were washed three times with cold binding buffer (PBS, pH 6.0 10 mM EDTA), and then diluted in binding buffer at a concentration of 10⁵ cells/ml. 100 μl of the cell dilution was dispensed into each 1.5-ml tube in such a manner that each tube contained 10⁴ cells, and 1 μl of HL161 antibody (1 mg/ml) was added to the dispensed cells. Next, the cells were incubated on ice. As control antibodies, 1 μl of each of rabbit antibody (Santacruz, sc-66893) and human IgG (Abcam, cat#. 409120), which bind to mouse FcRn, was used. The cells were recovered by centrifugation at 4° C. and 4000 rpm for 5 minutes, after which the cells were washed once with binding buffer and resuspended in 100 μl of binding buffer. As FITC-conjugated secondary antibody, 1 μl of anti-human IgG goat antibody (Invitrogen, Cat*. A11013) was added to the cells. In the case of the experiment using anti-mouse FcRn rabbit antibody, the anti-rabbit antibody was incubated with the cells on ice for 1 hour, and then the cells were recovered by centrifugation at 4° C. and 700 g for 5 minutes, washed once with binding buffer, resuspended in 400 ul of binding buffer and analyzed by FACS to examine the cross-reactivity of the HL161 antibodies with mouse FcRn (see FIG. 4). An experiment at a pH of 7.4 was performed using binding buffer at a pH of 7.4 in the same manner as the experiment using binding buffer at a pH of 6.0. The degree of the binding of each antibody to mouse FcRn was presented as relative MFI based on human IgG.

Experiment [2] has as its target T2, soluble human FcRn (human, UniProt P55899 24-297; P61769 21-119).
T2 construct: extracellular domain;mature; Non-covalent heterodimer secreted by 293 cells, purified on IgG Sepharose; also called shFcRn; soluble FcRn
Briefly: SPR, shFcRn immobilised, pH 7.4. The protocol: Measurement of the binding ability of antibody by SPR was performed by immobilizing shFcRn as a ligand onto a Proteon GLC chip (Bio-Rad) and measuring affinity.
The analysis of ligand and analyte was performed using a Proteon GLC chip, and the interaction was analyzed at a pH of 6.0 and a pH of 7.4. Immobilization of the ligand was activated by injecting a 1:1 mixture of 1×EDAC (EDC) and 1× Surfo-NHS for 5 minutes. shFcRn was diluted in 10 mM sodium acetate (pH 4.5) at a concentration of 25 μg/ml and added to the ligand at a flow rate of 30 μl/min for 5 minutes. […] The analyte antibody was allowed to flow on the immobilized chip at a flow rate of 30 μl/min. […] The association time of the analyte antibody was 240 seconds, and the dissociation time was 600 seconds. Regeneration of the chip was performed by injecting 10 mM glycine (pH 2.5) at a flow rate of 100 μl/min for 18 seconds. Based on sensorgrams resulting from six concentrations of the analyte, kinetics analysis was performed using Proteon XPR36 software.
On the technique in general: In SPR one partner is held on a chip, and binding of the other changes the refractive index at the surface.

Experiment [3] deals with T3, human FcRn on HEK293 cells (human, UniProt P55899 24-365; P61769 21-119).
T3 construct: whole, on cells; also called hFcRn
Put plainly: FACS on hFcRn-overexpressing HEK293 cells at pH 6.0, Alexa488 anti-human goat antibody; MFI relative to hIgG1. How it is done:
In stable HEK293 cells expressing human FcRn, the degrees of binding of antibody to FcRn at various pHs were analyzed using a FACS system. Specifically, 100,000 stable HEK293 cells were washed with PBS and centrifuged in a table top microcentrifuge at 4500 rpm for 5 minutes to obtain pellets. 1 μg of antibody was added to 100 μl of pH 6.0 or pH 7.4PBS/10 mM EDTA. The cell pellets were resuspended in 100 μl of the antibody solution and incubated on ice for 60 minutes. The cells were washed once with 150 μl of buffer having pH difference, and then pellets were obtained therefrom. Alexa488-labeled anti-human antibody goat antibody (1 mg/ml) was diluted at 1:20 in buffer having pH difference, and the pellets were resuspended in 100 μl of the buffer, and then cultured on ice for 60 minutes. The cells were washed once with 150 μl of buffer having pH difference, and pellets were obtained therefrom and resuspended in buffer having pH difference. The suspension was transferred into a tube for FACS analysis. These cells were analyzed by FACS using BD FACSDiva™ v6.1.3 software (BD Bioscience). The results of the analysis were expressed as Mean Fluorescence Intensity (MFI) (see FIG. 2).

T2 sequence (P55899 24-297, chain 1 of 2): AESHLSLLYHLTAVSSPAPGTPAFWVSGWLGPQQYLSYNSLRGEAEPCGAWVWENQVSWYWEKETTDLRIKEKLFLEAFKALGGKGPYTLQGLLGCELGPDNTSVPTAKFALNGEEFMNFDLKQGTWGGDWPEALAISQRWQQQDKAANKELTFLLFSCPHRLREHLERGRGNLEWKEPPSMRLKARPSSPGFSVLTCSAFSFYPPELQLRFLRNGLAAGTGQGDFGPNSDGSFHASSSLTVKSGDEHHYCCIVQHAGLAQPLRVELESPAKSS
T2 sequence (P61769 21-119, chain 2 of 2): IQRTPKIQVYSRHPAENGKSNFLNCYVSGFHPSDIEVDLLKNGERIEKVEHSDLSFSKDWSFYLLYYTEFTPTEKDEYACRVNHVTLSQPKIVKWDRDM
T3 sequence (P55899 24-365, chain 1 of 2): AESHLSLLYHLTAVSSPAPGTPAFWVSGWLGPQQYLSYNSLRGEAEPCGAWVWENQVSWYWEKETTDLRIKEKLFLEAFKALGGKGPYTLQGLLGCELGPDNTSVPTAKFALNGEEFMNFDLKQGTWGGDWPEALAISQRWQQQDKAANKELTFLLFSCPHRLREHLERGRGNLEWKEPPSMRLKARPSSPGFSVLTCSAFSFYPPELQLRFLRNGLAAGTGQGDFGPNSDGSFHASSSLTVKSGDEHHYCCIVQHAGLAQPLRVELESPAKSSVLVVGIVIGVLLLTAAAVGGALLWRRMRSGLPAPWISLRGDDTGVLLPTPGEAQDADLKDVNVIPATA
T3 sequence (P61769 21-119, chain 2 of 2): as the sequence (P61769 21-119, chain 2 of 2) above

B1: HL161-11H (antibody, V domains shown)
VH: QMQLVESGGGLVQPGRSLRLSCAASGFTFSSYAMHWVRQAPGKGLEWVAVISYDGSNKYYADSVKGRFTISRDNSKNTLYLQMNSLRSEDTAVYYCSRGSGGRDAFDVWGQGTMITVSS
VL: DIQMTQSPSTLSASVGDRVTITCRASQSISSRLAWYQQKPGKAPKLLIYKASSLETGVPSRFSGSGSGTEFTLTISSLQPDDFATYYCQQTNSFPLTFGGGTKVEIK
notes: Whole human IgG from pNATAB vectors
What is called koff is the first-order rate constant of dissociation. High values mean a short-lived complex, low ones a long-lived complex. Broadly, the kon is the rate constant with which the complex forms. Read a low kon as slower complex formation. On to B1, for which the binding result in experiment [1] was “no binding”. In experiment [2], the koff worked out at 0.00045 s⁻¹ and the kon was found to be 500000 M⁻¹ s⁻¹. Also, the “Relative MFI (Fold)” value in experiment [3] was 3.5 fold.
